Biological target: T1, SARS-CoV-2 WT (Wuhan-1) receptor binding domain (SARS-CoV-2, Wuhan-Hu-1, UniProt P0DTC2, biotin (EZ-Link Sulfo-NHS-LC-Biotin, average of four biotins per RBD molecule))
T1 construct: source: bought: Acro Biosystems (Cat #SPD-C52H3)
Assay: BLI
Details: both partners purified

B1: ADI-81654 (Fab, V domains shown)
VH: QVQLKQSGPTLVKPTQTLTLTCTFSGFSLSTYGVGVGWIRQPPGKALEWLALIYYDDDKRYSPSLKSRLTITKDTSQNQVVLTMTNMDPVDTATYYCARHTIATIFDFDSWGQGTLVTVSS
VL: QSVLTQPASVSGSPGQSITISCTGTSSDVGGHNYVSWYQQHPGKAPKLMIYEVSNRPSGVSNRFSGSKSGNTASLTISGLQAEDEADYSCSSYASSTSPVVFGGVTKLTVL
B1 showed a Kd of 56 nM.

From publication PMC10180619 (Nature Communications, 2023)
